Laboratory results reported in US20240109962A1 (SPARX BIOSCIENCE, published 2024).
Like-named read-outs stand apart in the source and are kept apart here.

Experiments:
[1] = target: T1, human LILRB2 expressed on cells (293T-LILRB2, CHO-K1-LILRB2) (human, UniProt Q8N423 22-597); experiment: flow cytometry, blockade of His-tagged HLA-G tetramer binding to 293T-LILRB2 cells; fit table under the graph
T1 construct: whole, on cells; the cell line is named under assay; also called HEK293T-LILRB2
Experimental: (§1) Serial diluted humanized LILRB2 antibodies were then added to the mixture and incubated at room temperature for another 45 minutes. The binding of HLA-G/LILRB2 was detected afterwards using a secondary PE-labeled anti-His tag antibody via flow cytometry.

[2] = target: T1, human LILRB2 expressed on cells …; experiment: flow cytometry, 293T-LILRB2 cells
Description: The fluorescent signals were detected by flow cytometry.

[3] = target: T2, recombinant human LILRB2 protein (human, UniProt Q8N423 22-460, limits assumed); experiment: ELISA, coated recombinant human LILRB2; parameters: unit not given here
T2 construct: also called recombinant LILRB2 protein
T2 sequence (Q8N423 22-460 limits assumed): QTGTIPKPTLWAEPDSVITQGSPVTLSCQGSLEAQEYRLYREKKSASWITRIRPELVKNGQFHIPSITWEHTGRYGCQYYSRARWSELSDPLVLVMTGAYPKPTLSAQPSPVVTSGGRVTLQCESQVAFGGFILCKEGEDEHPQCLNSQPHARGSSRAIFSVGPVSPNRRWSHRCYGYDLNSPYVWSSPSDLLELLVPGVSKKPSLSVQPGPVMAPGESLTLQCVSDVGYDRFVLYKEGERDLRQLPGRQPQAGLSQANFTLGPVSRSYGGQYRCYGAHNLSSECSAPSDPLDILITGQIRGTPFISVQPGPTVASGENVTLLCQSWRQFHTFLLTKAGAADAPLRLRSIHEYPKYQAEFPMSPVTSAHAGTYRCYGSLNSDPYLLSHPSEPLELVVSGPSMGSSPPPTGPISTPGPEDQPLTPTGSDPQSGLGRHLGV
Experimental: This affinity maturation library was screened against human LILRB2 to identify antibodies having high binding affinity to LILRB2. Briefly, an ELISA plate was coated with 0.1 ug/well recombinant human LILRB2 protein. Serial diluted maturated h#2E1 antibodies were incubated in the LILRB2 coated plate for 2 hrs. The plate was washed and a secondary HRP-labeled anti-human IgG was then added to each well. After being incubated at room temperature for 1 hour, the colorimetric ELISA signals were developed by adding the TMB substrate and reaction was stopped by 1M H3PO4. Table 7 below provides binding activities of exemplary matured antibodies to recombinant LILRB2 protein.

[4] = target: T1, human LILRB2 expressed on cells …; experiment: flow cytometry, His-HLA-A2 tetramer (competitor) bound to 293T-LILRB2 cells, relative to no antibody; parameters: concentration or dose not given beside the values
Experimental: Serial diluted h#2E1 antibodies were then added to the mixture and incubated at room temperature for another 45 minutes. […]

[5] = target: T1, human LILRB2 expressed on cells …; experiment: flow cytometry, blockade of His-tagged HLA-G tetramer binding to 293T-LILRB2 cells; fit table under the graph; remark: listed apart in the source
Experimental: as §1

[6] = target: LILRB2 antigen of the ELISA of Table 5 (format not specified) (UniProt Q8N423 22-460, limits assumed); experiment: ELISA, antibody titration
LILRB2 antigen of the ELISA of Table 5 (format not specified), sequence (Q8N423 22-460 limits assumed): as above

[7] = target: T3, human LILRB3 expressed on 293T cells (human, UniProt O75022 24-631); experiment: flow cytometry on 293T transfectants, MFI
T3 construct: whole, on cells
Experimental: The cells were then immobilized with glutaraldehyde in the presence of 5% defatted milk at room temperature for 2 hours. An anti-LILRB2 antibody (5 μg/ml) was added to each well and incubated at room temperature for 1 hours. An Alex Flour®-labelled goat anti-mouse secondary antibody (1:2,000 dilution) was then added into each well and incubated at room temperature for 30′. The cells were washed twice with PBS after the staining. Fluorescence intensities (MFI) were measured.

LILRB3-His = target: T4, LILRB3-His; experiment: ELISA on recombinant His-tagged protein, OD450
T4 construct: also called His-tagged LILRB3; recombinant LILRB3 protein

T1 sequence (Q8N423 22-597): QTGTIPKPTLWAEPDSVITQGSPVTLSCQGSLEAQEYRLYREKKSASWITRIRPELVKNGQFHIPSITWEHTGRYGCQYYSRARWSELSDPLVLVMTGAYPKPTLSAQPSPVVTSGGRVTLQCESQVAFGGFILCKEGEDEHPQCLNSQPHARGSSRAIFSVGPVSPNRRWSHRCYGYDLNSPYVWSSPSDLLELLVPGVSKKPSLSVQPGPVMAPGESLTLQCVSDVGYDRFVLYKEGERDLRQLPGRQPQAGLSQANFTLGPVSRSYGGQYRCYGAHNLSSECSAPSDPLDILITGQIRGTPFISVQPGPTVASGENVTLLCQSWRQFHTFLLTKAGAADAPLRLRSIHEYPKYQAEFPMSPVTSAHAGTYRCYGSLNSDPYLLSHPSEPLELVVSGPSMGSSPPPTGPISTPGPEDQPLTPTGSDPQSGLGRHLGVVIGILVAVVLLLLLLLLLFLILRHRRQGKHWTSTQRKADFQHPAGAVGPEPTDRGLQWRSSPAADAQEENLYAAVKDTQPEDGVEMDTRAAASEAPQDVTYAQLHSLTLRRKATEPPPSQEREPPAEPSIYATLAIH

| IC50 [1] | Span [1] | Bmax [2] | Bmax [3] | % no Ab [4] | IC50 [5] | Span [5] | Kd [6] | binding result [7] | binding result (LILRB3-His) | Binder |
| --- | --- | --- | --- | --- | --- | --- | --- | --- | --- | --- |
| 0.122 nM | 9690 RFU | 456000 | 1.29 | 52.1% | – | – | – | – | – | Antibody 2E1_FC3 (antibody, V domains shown) VH: EVQLVESGGGLVQPGGSLRLSCAVSGYSITSGYYWNWIRQAPGKGLEWVAYISYDGNTNYNPSLKNRFTISRDTSKNTFYLQMNSLRAEDTAVYYCAREESTMITTAWFAYWGQGTLVTVSS VL: DIQMTQSPSSLSASVGDRVTITCRASENIYSNLAWYQQKPGKAPKLLIYGATNLASGVPSRFSGSGSGTDYTLTISSLQPEDFATYYCQHFWDTPYTFGQGTKVEIK |
| – | – | 420000 | 0.989 | 51.5% | – | – | – | – | – | Antibody 2E1_FH2 (antibody, V domains shown) VH: EVQLVESGGGLVQPGGSLRLSCAVSGYSITSGYYWNWIRQAPGKGLEWVASISYDGNNNYNPSLKNRFTISRDTSKNTFYLQMNSLRAEDTAVYYCAREESTMITTAWFAYWGQGTLVTVSS VL: DIQMTQSPSSLSASVGDRVTITCRASENIYSNLAWYQQKPGKAPKLLIYGATNLASGVPSRFSGSGSGTDYTLTISSLQPEDFATYYCQHFWDTPYTFGQGTKVEIK |
| – | – | 627000 | 1.16 | 50.1% | 0.59 nM | 8170 RFU | – | – | – | Antibody 2E1_GB11 (antibody, V domains shown) VH: EVQLVESGGGLVQPGGSLRLSCAVSGYSITSGYYWNWIRQAPGKGLEWVAYISYDGNNNYNPSLKNRFTISRDTSKNTFYLQMNSLRAEDTAVYYCAREESTMITTAWFAYWGQGTLVTVSS VL: DIQMTQSPSSLSASVGDRVTITCRASENIYSNLAWYQQKPGKAPKLLIYGATNLALGVPSRFSGSGSGTDYTLTISSLQPEDFATYYCQHFWDTPYTFGQGTKVEIK |
| – | – | 706000 | 1.5 | 47.9% | 0.331 nM | 6980 RFU | – | – | – | Antibody 2E1_GF1 (antibody, V domains shown) VH: EVQLVESGGGLVQPGGSLRLSCAVSGYSITSGYYWNWIRQAPGKGLEWVAYISYDGNNNYNPSLKNRFTISRDTSKNTFYLQMNSLRAEDTAVYYCAREESTMITTAWFAYWGQGTLVTVSS VL: DIQMTQSPSSLSASVGDRVTITCRASEVIYSNLAWYQQKPGKAPKLLIYGATNLASGVPSRFSGSGSGTDYTLTISSLQPEDFATYYCQHFWDTPYTFGQGTKVEIK |
| – | – | 637000 | 1.01 | 50.9% | – | – | – | – | – | Antibody 2E1_GB1 (antibody, V domains shown) VH: EVQLVESGGGLVQPGGSLRLSCAVSGYSITSGYSWNWIRQAPGKGLEWVAYISYDGNNNYNPSLKNRFTISRDTSKNTFYLQMNSLRAEDTAVYYCAREESTMITTAWFAYWGQGTLVTVSS VL: DIQMTQSPSSLSASVGDRVTITCRASENIYSNLAWYQQKPGKAPKLLIYGATNLASGVPSRFSGSGSGTDYTLTISSLQPEDFATYYCQHFWDTPYTFGQGTKVEIK |
| – | – | 639000 | 1.14 | 46.2% | – | – | – | – | – | Antibody 2E1_GF9 (antibody, V domains shown) VH: EVQLVESGGGLVQPGGSLRLSCAVSGYSITSGYSWNWIRQAPGKGLEWVAYISYDGNNNYNPSLKNRFTISRDTSKNTFYLQMNSLRAEDTAVYYCAREESTMITTAWFAYWGQGTLVTVSS VL: DIQMTQSPSSLSASVGDRVTITCRASETIYSNLAWYQQKPGKAPKLLIYGATNLAAGVPSRFSGSGSGTDYTLTISSLQPEDFATYYCQHFWDTPYTFGQGTKVEIK |
| – | – | 658000 | 1.37 | 46.2% | – | – | – | – | – | Antibody 2E1_GE11 (antibody, V domains shown) VH: EVQLVESGGGLVQPGGSLRLSCAVSGYSITSGYSWNWIRQAPGKGLEWVAYISYDGNNNYNPSLKNRFTISRDTSKNTFYLQMNSLRAEDTAVYYCAREESTMITTAWFAYWGQGTLVTVSS VL: DIQMTQSPSSLSASVGDRVTITCGASENIYSNLAWYQQKPGKAPKLLIYGATELASGVPSRFSGSGSGTDYTLTISSLQPEDFATYYCQHFWDTPYTFGQGTKVEIK |
| – | – | 684000 | 1.24 | 47.1% | – | – | – | – | – | Antibody 2E1_FH9 (antibody, V domains shown) VH: EVQLVESGGGLVQPGGSLRLSCAVSGYSITSGYYWNWIRQAPGKGLEWVAYISYDGNNLYNPSLKNRFTISRDTSKNTFYLQMNSLRAEDTAVYYCAREESTMITTAWFAYWGQGTLVTVSS VL: DIQMTQSPSSLSASVGDRVTITCRASENIYSNLAWYQQKPGKAPKLLIYGATNLASGVPSRFSGSGSGTDYTLTISSLQPEDFATYYCQHFWDTPYTFGQGTKVEIK |
| 0.232 nM | 6750 RFU | 460000 | 1.28 | 51% | – | – | – | – | – | Antibody 2E1_FD3 (antibody, V domains shown) VH: EVQLVESGGGLVQPGGSLRLSCAVSGYSITSGYYWNWIRQAPGKGLEWVAYISYDGNANYNPSLKNRFTISRDTSKNTFYLQMNSLRAEDTAVYYCAREESTMITTAWFAYWGQGTLVTVSS VL: DIQMTQSPSSLSASVGDRVTITCRASENIYSNLAWYQQKPGKAPKLLIYGATNLASGVPSRFSGSGSGTDYTLTISSLQPEDFATYYCQHFWDTPYTFGQGTKVEIK |
| 0.254 nM | 6670 RFU | 462000 | 1.59 | 53.3% | – | – | – | – | – | Antibody 2E1_FF4 (antibody, V domains shown) VH: EVQLVESGGGLVQPGGSLRLSCAVSGYSITSGYYWNWIRQAPGKGLEWVAYISYDGNNWYNPSLKNRFTISRDTSKNTFYLQMNSLRAEDTAVYYCAREESTMITTAWFAYWGQGTLVTVSS VL: DIQMTQSPSSLSASVGDRVTITCRASENIYSNLAWYQQKPGKAPKLLIYGATNLASGVPSRFSGSGSGTDYTLTISSLQPEDFATYYCQHFWDTPYTFGQGTKVEIK |
| – | – | 724000 | 1.39 | 52.9% | – | – | – | – | – | Antibody 2E1_GD9 (antibody, V domains shown) VH: EVQLVESGGGLVQPGGSLRLSCAVSGYSITSGYYWNWIRQAPGKGLEWVAYISYDGNNNYNPSLKNRFTISRDTSKNTFYLQMNSLRAEDTAVYYCAREESTMITTAWFAYWGQGTLVTVSS VL: DIQMTQSPSSLSASVGDRVTITCRASENIFSNLAWYQQKPGKAPKLLIYGATNLASGVPSRFSGSGSGTDYTLTISSLQPEDFATYYCQHFWDTPYTFGQGTKVEIK |
| – | – | 678000 | 1.26 | 46.6% | 0.596 nM | 5760 RFU | – | – | – | Antibody 2E1_GH6 (antibody, V domains shown) VH: EVQLVESGGGLVQPGGSLRLSCAVSGYSITSGYHWNWIRQAPGKGLEWVAYISYDGNNNYNPSLKNRFTISRDTSKNTFYLQMNSLRAEDTAVYYCAREESTMITTAWFAYWGQGTLVTVSS VL: DIQMTQSPSSLSASVGDRVTITCRASENIYSNLAWYQQKPGKAPKLLIYGATNLASGVPSRFSGSGSGTDYTLTISSLQPEDFATYYCQHFWDTPYTFGQGTKVEIK |
| – | – | – | – | – | – | – | 1.39 nM | no binding (tested: 5 µg/ml) | no binding | Antibody 13H5 (antibody, V domains shown, Mouse hybridoma mAb purified from ascites) VH: EIQLQQSGPELVKPGTSVKVSCKASGSSFTDYNMYWVKQSHGKSLDWIGYIDPYNGRTTYNQKFRGKATLTVDKSSSTAFMHLNSLTSEDSAVYYCARGDYFDYWGQGTSLTVSS VL: EIQMTQTTSSLSASLGDRVTISCSASQGISNYLNWFQQKPDGTVKLLIYYTSTLHSGVPSRFSGSGSGTDFSLTISNLDPEDFATYYCQQYSNLPYTFGGGTKLEIK |
